Results taken from US20250026849A1 (ARCELLX, published 2025).

T1: CD123 (Homo sapiens (Human), UniProt P26951 19-305, limits assumed)
T1 construct: The CD123 construct used in the ELISA is not described; also called CD123-Signal
T1 sequence: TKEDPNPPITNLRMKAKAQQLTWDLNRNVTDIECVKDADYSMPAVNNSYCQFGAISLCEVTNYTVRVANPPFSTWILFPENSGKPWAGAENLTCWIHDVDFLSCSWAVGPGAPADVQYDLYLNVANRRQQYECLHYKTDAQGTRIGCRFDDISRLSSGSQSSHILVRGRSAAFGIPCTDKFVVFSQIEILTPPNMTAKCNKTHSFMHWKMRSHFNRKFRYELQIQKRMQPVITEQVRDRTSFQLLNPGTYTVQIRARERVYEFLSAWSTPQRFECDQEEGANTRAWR

B1: D domain of SEQ ID NO: 573 (designed binder)
chain: MGSWYEFDDRLDAIAYRLNALGGSEAELAWFEWEIAEFELDLQWYKGKGNPEVEALVWEADAIEWELEAYRHN
B2: D domain of SEQ ID NO: 567 (designed binder)
chain: MGSWAEFKQRLAAIKTRLEALGGSEAELAAFEWEIVAFFSELFAYKGKGNPEVEALRDEAIAIETELVAYRHN
B3: D domain of SEQ ID NO: 575 (designed binder)
chain: MGSWEEFDQRLDAIDVRLYALGGSEAELAEFEFDIAAFEEWLQLYKGKGNPEVEALNMEAFAITDELCAYRHN
B4: D domain of SEQ ID NO: 563 (designed binder)
chain: MGSWSWFQWDLAGIKDHLEALGGSEAELAEFESEIAYFEDELQWYKGKGNPEVEALRKEAAAIRDELQAYRHN
B5: D domain of SEQ ID NO: 574 (designed binder)
chain: MGSWFEFDERLDAIGSRLTALGGSEAELASFEFYIADFEEWLQQYKGKGNPEVEALEWEAFAIDEELGAYRHN
B6: D domain of SEQ ID NO: 570 (designed binder)
chain: MGSWYEFDHRLDAIYQRLWALGGSEAELAEFEYGIAEFEEYLQDYKGKGNPEVEALISEAWAIEWELSAYRHN
B7: D domain of SEQ ID NO: 562 (designed binder)
chain: MGSWHWFKEDLAMITDVLEALGGSEAELAAFESEIAVFEADLQYYKGKGNPEVEALRKEAAAIRDELQAYRHN
B8: D domain of SEQ ID NO: 579 (designed binder)
chain: MGSWNEFDDRLLAIWGRLDALGGSEAELAFFEEQIAGFEDELQWYKGKGNPEVEALDQEAEAIEKELWAYRHN
B9: D domain of SEQ ID NO: 568 (designed binder)
chain: MGSWWEFDHRLTAIDTRLQALGGSEAELAEFESSIAEFEWWLQDYKGKGNPEVEALFAEAEAIYVELDAYRHN
B10: D domain of SEQ ID NO: 578 (designed binder)
chain: MGSWYEFDHRLEAIYDRLWALGGSEAELAFFEFDIADFEWDLQSYKGKGNPEVEALFDEAAAIGHELLAYRHN
B11: D domain of SEQ ID NO: 572 (designed binder)
chain: MGSWSEFDSRLDAIAYRLFALGGSEAELAQFEWIIADFEEDLQMYKGKGNPEVEALFSEAYAIEIELNAYRHN
B12: D domain of SEQ ID NO: 565 (designed binder)
chain: MGSWFEFKWTLALIKQELEALGGSEAELADFEQEIAEFEWWLQTYKGKGNPEVEALRKEAAAIRDELQAYRHN
B13: D domain of SEQ ID NO: 576 (designed binder)
chain: MGSWEEFDVRLDAIFNRLWALGGSEAELAEFEFDIAWFEMDLQEYKGKGNPEVEALFDEAEAITNELVAYRHN
B14: D domain of SEQ ID NO: 564 (designed binder)
chain: MGSWTEFKGELAEIKWILEALGGSEAELAFFEDEIAAFEWDLQKYKGKGNPEVEALRKEAAAIRDELQAYRHN
B15: D domain of SEQ ID NO: 569 (designed binder)
chain: MGSWWEFQFRLYAIDQRLLALGGSEAELAEFEQDIADFEWMLQDYKGKGNPEVEALMLEADAIEAELKAYRHN
B16: D domain of SEQ ID NO: 577 (designed binder)
chain: MGSWEEFDKRLDAITRRLMALGGSEAELAEFESTIAWFEWDLQEYKGKGNPEVEALDWEAYAIDYELGAYRHN
B17: D domain of SEQ ID NO: 566 (designed binder)
chain: MGSWAEFKQRLAAIKTRLEALGGSEAELAAFMDEIMAFEWELWAYKGKGNPEVEALMNEAFAIDVELYAYRHN
B18: D domain of SEQ ID NO: 571 (designed binder)
chain: MGSWYEFDMRLDAIWERLTALGGSEAELADFEQYIAEFERQLQDYKGKGNPEVEALFDEAWAIEDELYAYRHN

These binders were tested against T1, CD123 (assay: ELISA).
Set-up: unit not given here
In the case of B1, the ELISA_avg is reported as 4.6. Work on B2 yielded an ELISA_avg of 3.6. B3 gave an ELISA_avg of 3.6. Binder B4 has an ELISA_avg of 12.9. In the case of B5, the ELISA_avg is reported as 3.8. Binder B6 has an ELISA_avg of 4.6. B7 was tested, and the ELISA_avg was 5.2. B8 gave an ELISA_avg of 4.1. For B9, the ELISA_avg was 4.3. With B10 the ELISA_avg was 4.5. B11 showed an ELISA_avg of 4.3. Binder B12 has an ELISA_avg of 4.9. In the case of B13, the ELISA_avg is reported as 4.7. With B14 the ELISA_avg was 8.2. B15 showed an ELISA_avg of 3.1. With B16 the ELISA_avg was 4.5. For B17, the ELISA_avg was 3.4. B18 showed an ELISA_avg of 13.7.
